One assay has as its target HLA-B*54:01. Description: IEDB peptide-MHC binding, purified MHC/competitive/radioactivity; filed as Kd, often an IC50 or EC50 that approximates it; ≥ and ≤ were set here for values at or beyond the usual limits of such assays.
A further assay addresses HLA-B*53:01. The assay is described as above.
For a further assay, the target named is HLA-B*07:02. The assay is described as above.
Another assay has as its target HLA-B*35:01. The description is as above.
The target in the next assay is HLA-B*51:01. The assay is described as above.
Assay [1] has as its target HLA-A*02:01. In words: IEDB peptide-MHC binding, purified MHC/competitive/fluorescence; filed as Kd, often an IC50 or EC50 that approximates it; ≥ and ≤ were set here for values at or beyond the usual limits of such assays.
The target in a further assay is HLA-B*58:01. Description: IEDB peptide-MHC binding, purified MHC/direct/fluorescence; filed as Kd, often an IC50 or EC50 that approximates it; ≥ and ≤ were set here for values at or beyond the usual limits of such assays. To be noted: source organism: Entamoeba histolytica HM-1:IMSS.
The target in another assay is HLA-B*57:01. The assay is described as above. The note with it: source organism: Entamoeba histolytica HM-1:IMSS.
Assay [2] deals with HLA-A*02:01. Description: IEDB peptide-MHC binding, purified MHC/competitive/radioactivity; filed as Kd, often an IC50 or EC50 that approximates it; ≥ and ≤ were set here for values at or beyond the usual limits of such assays. The note with it: source organism: Lassa virus Josiah.
The next assay deals with HLA-B*18:01. In words: IEDB peptide-MHC binding, purified MHC/direct/fluorescence; filed as Kd, often an IC50 or EC50 that approximates it; ≥ and ≤ were set here for values at or beyond the usual limits of such assays. The note with it: source organism: West Nile virus.
The target of a further assay is HLA-B*44:03. In words: IEDB peptide-MHC binding, purified MHC/competitive/radioactivity; filed as Kd, often an IC50 or EC50 that approximates it; ≥ and ≤ were set here for values at or beyond the usual limits of such assays.
The target in a further assay is HLA-B*44:02. The assay is described as above.
Another assay concerns the target HLA-B*40:01. Described as above.
Another assay addresses HLA-B*27:05. Description: IEDB peptide-MHC binding, purified MHC/direct/fluorescence; filed as Kd, often an IC50 or EC50 that approximates it; ≥ and ≤ were set here for values at or beyond the usual limits of such assays. To be noted: source organism: Mammarenavirus lassaense.
A further assay concerns the target HLA-B*48:01. Described as above. To be noted: source organism: Mammarenavirus lassaense.
Where [3] appears, read: source organism: Vaccinia virus WR.
The mark [4] stands for this setting: source organism: Dengue virus 2 Jamaica/1409/1983.
[5] abbreviates: source organism: Triticum aestivum.
Setting [6] is: source organism: Dengue virus 4 Philippines/H241/1956.
Setting [7] is: source organism: Dengue virus 1 Nauru/West Pac/1974.
Setting [8] is: source organism: Mammarenavirus choriomeningitidis.

A word on the Kd: it is the concentration at which binding is half-saturated.

In the case of YPFYVSPTEM, the Kd in the assay with HLA-B*54:01 (setting [3]) was determined as 0.082 µM; with HLA-B*53:01 (setting [3]) it was 0.446 µM; with HLA-B*07:02 (setting [3]) it was 2.06 µM; in the assay with HLA-B*35:01 (setting [3]) it was 0.00632 µM; with HLA-B*51:01 (setting [3]), 1.55 µM.

In the case of KMTLFKSIL, the equilibrium dissociation constant (Kd) in the assay with HLA-A*02:01 [1] (setting [3]) is 1.28 µM.

As for VPSIKAGNDI, the Kd with HLA-B*53:01 (setting [4]) is at least 59.8 µM; in the assay with HLA-B*07:02 (setting [4]), 2.13 µM; with HLA-B*51:01 (setting [4]) it was 8.47 µM.

Sequence ELNAELSDKL returned a Kd with HLA-A*02:01 [1] (setting [3]) of at least 20 µM.

Turning to NAWKVSCTI, the results for the Kd in the assay with HLA-B*53:01 (setting [4]) and with HLA-B*51:01 (setting [4]) were 0.036 µM and 0.0553 µM, respectively.

Turning to MLMPRQKI, in the assay with HLA-A*02:01 [1] (source organism: Influenza A virus (A/turkey/Wisconsin/1968(H5N9))), the Kd worked out at 1.53 µM.

Regarding WPISKMDIGV, the Kd in the assay with HLA-B*51:01 (source organism: Dengue virus 1 Singapore/S275/1990) was 10.7 µM.

As for VPLLALGCY, the dissociation constant (Kd) in the assay with HLA-B*51:01 (source organism: Dengue virus 1 Brazil/97-11/1997) was found to be 14.9 µM.

As to QPSSQVSF, the equilibrium dissociation constant (Kd) is at least 87.7 µM with HLA-B*54:01 (setting [5]); at least 38.3 µM with HLA-B*53:01 (setting [5]); at least 26.2 µM in the assay with HLA-B*07:02 (setting [5]); at least 23.9 µM with HLA-B*35:01 (setting [5]); 2.96 µM in the assay with HLA-B*51:01 (setting [5]).

Regarding YLRPYMHGY, the results for the Kd with HLA-B*58:01 and in the assay with HLA-B*57:01 were 12 µM and 5.46 µM, respectively.

As to ELTLTNTSI, in the assay with HLA-A*02:01 [2], the Kd is 12.5 µM.

In the case of DLKPDNILL, the equilibrium dissociation constant (Kd) in the assay with HLA-A*02:01 [1] (source organism: Plasmodium yoelii yoelii) is 0.154 µM.

Consider WHYDQENPY, for which the Kd with HLA-B*35:01 (setting [6]) turned out to be 1.56 µM.

Consider LPESDLDKV, for which the dissociation constant Kd in the assay with HLA-B*54:01 (setting [3]) is 2.29 µM; in the assay with HLA-B*53:01 (setting [3]) it was 7.28 µM; with HLA-B*07:02 (setting [3]), 7.81 µM; in the assay with HLA-B*35:01 (setting [3]), at least 22.6 µM; with HLA-B*51:01 (setting [3]), 6.57 µM.

Regarding NPTSETMYL, the Kd in the assay with HLA-B*54:01 (setting [3]) was at least 37.5 µM; with HLA-B*53:01 (setting [3]), 0.0042 µM; with HLA-B*07:02 (setting [3]) it was 0.116 µM; with HLA-B*35:01 (setting [3]), 0.0592 µM; with HLA-B*51:01 (setting [3]) it was at least 60.7 µM.

Take VPEFAKQYVL: the Kd came to 1.86 µM in the assay with HLA-B*54:01 (setting [3]); 0.0852 µM with HLA-B*53:01 (setting [3]); 0.0258 µM in the assay with HLA-B*07:02 (setting [3]); 0.0307 µM with HLA-B*35:01 (setting [3]); 1.55 µM in the assay with HLA-B*51:01 (setting [3]).

Regarding WEALDTMYV, the dissociation constant (Kd) with HLA-B*18:01 was found to be 0.556 µM.

In the case of IPFDDIVRTM, the equilibrium dissociation constant (Kd) with HLA-B*54:01 (setting [3]) was found to be 4.25 µM; in the assay with HLA-B*53:01 (setting [3]) it was 1.02 µM; in the assay with HLA-B*07:02 (setting [3]) it was 2.94 µM; in the assay with HLA-B*35:01 (setting [3]) it was 0.192 µM; with HLA-B*51:01 (setting [3]), 8.69 µM.

ALMEWLKTRPI showed a Kd in the assay with HLA-A*02:01 [1] (source organism: Influenza A virus (A/swine/Hannover/1/1981(H1N1))) of 0.0169 µM.

For the sequence NPDNTIAVI, the Kd with HLA-B*54:01 (setting [3]) was found to be 2.21 µM; with HLA-B*53:01 (setting [3]) it was 0.00142 µM; with HLA-B*07:02 (setting [3]), 0.233 µM; in the assay with HLA-B*35:01 (setting [3]) it was 0.00265 µM; in the assay with HLA-B*51:01 (setting [3]) it was 1.73 µM.

Regarding AEPPFGESYI, the Kd was determined as 0.877 µM in the assay with HLA-B*44:03 (setting [7]), 0.596 µM with HLA-B*44:02 (setting [7]) and 0.183 µM in the assay with HLA-B*40:01 (setting [7]).

As to LPLPWAAGA, in the assay with HLA-B*51:01 (setting [6]), the equilibrium dissociation constant (Kd) was 1.42 µM.

For VEMGEAAAIF, the figures for the Kd in the assay with HLA-B*44:03 (setting [6]), with HLA-B*44:02 (setting [6]) and with HLA-B*40:01 (setting [6]) were 0.166 µM, 0.0129 µM and 0.971 µM, respectively.

Take ATQPGLTSAV: in the assay with HLA-A*02:01 [2], the Kd was at least 25 µM.

With RKLLESQGR, the Kd is 0.451 µM with HLA-B*27:05 and at least 20 µM with HLA-B*48:01.

As to FATCGLFAL, the Kd in the assay with HLA-B*54:01 (setting [8]) is 6.3 µM; in the assay with HLA-B*53:01 (setting [8]), 8.69 µM; with HLA-B*07:02 (setting [8]), 8.62 µM; with HLA-B*35:01 (setting [8]), 0.736 µM; in the assay with HLA-B*51:01 (setting [8]), at least 27 µM.
